Results as given in publication doi:10.1101/2022.09.16.508217 (bioRxiv, 2022).

T1: yeast PCNA, N-terminally His-tagged Pol30 (S. cerevisiae, UniProt P15873 1-258)
T1 sequence: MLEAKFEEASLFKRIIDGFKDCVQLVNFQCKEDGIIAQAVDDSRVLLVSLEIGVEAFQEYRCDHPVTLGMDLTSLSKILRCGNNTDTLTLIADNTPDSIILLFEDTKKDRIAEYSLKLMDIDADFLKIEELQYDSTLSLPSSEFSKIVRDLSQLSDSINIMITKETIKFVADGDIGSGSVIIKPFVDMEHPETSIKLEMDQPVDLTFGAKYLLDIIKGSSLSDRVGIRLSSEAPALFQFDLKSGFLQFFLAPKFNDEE


Tests used:
[1] = target: T1, yeast PCNA, N-terminally His-tagged …; assay: pull-down
[2] = target: chicken N-terminally His-tagged PCNA (recombinant) (chicken, UniProt Q9DEA3 1-262); assay: pull-down
chicken N-terminally His-tagged PCNA (recombinant), sequence (Q9DEA3 whole entry): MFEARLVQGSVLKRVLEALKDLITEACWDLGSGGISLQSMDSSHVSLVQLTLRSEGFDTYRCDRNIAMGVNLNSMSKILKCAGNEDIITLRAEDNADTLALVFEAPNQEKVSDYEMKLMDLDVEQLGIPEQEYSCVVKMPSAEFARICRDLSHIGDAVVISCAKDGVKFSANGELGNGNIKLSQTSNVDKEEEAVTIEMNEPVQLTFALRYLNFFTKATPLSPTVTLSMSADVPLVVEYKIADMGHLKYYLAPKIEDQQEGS

Binder	binding result [1]	binding result [2]
YSSNGKLLTYFRKHVKDT (domain or fragment) [GSTscc2PIP (GST fused with the last 18 amino acids of yeast Scc2, aa 1476-1493, wild-type PIP)]	binds	
TNKVVATARSLAAAKDGTSS [GST-NIPBL-pip2 (chicken NIPBL aa 2764-2783 with Q2769A,L2771A,Y2775A, fused to GST)]		binds
TNKVVQTLRSLYAAKDGTSS [GST-NIPBL-PIP2 (chicken NIPBL aa 2764-2783 fused to GST)]		binds
GST-NIPBL WT (C-terminus of chicken NIPBL, aa 2582-2783, fused to GST) (domain or fragment) ANSKITEEVKRSIVKQYLDFKLLMEHLDPDEEEEDGEVSASTNARNKAITSLLGGGSPKNNAAETEDDESDGEDRGGGTSGSLRRSKRNSDSTELASQMNESVDVMDVIAICCPKYKDRPQIARVVQKTSNGFSVQWMAGSYSGSWTEAKRRDGRKLVPWVDTIKESDIIYKKIALTSANKLTNKVVQTLRSLYAAKDGTSS		binds
GST-NIPBL pip1 (chicken NIPBL aa 2582-2783 with PIP1 mutated Q2597A,L2599A,F2601A, fused to GST) (domain or fragment) ANSKITEEVKRSIVKAYADAKLLMEHLDPDEEEEDGEVSASTNARNKAITSLLGGGSPKNNAAETEDDESDGEDRGGGTSGSLRRSKRNSDSTELASQMNESVDVMDVIAICCPKYKDRPQIARVVQKTSNGFSVQWMAGSYSGSWTEAKRRDGRKLVPWVDTIKESDIIYKKIALTSANKLTNKVVQTLRSLYAAKDGTSS		binds
